This passage reports binding result and Km results from PMC7608589, “Divergent architecture of the heterotrimeric NatC complex explains N-terminal acetylation of cognate substrates” (Nature Communications, 2020).

Usually Km stands for the substrate concentration at which the rate is half of its maximum.

In series [1] the target is T1, NatC WT complex (Naa30ΔC17, full-length Naa35, Naa38ΔC11) (S. cerevisiae, UniProt Q03503 1-159; Q02197 1-733; P23059 1-77).
T1 construct: Naa30, catalytic subunit of NatC, S. cerevisiae, residues 1–159; Naa38, small auxiliary subunit of NatC, S. cerevisiae, residues 1–77; also called heterotrimeric NatC complex; not shown: His6, N-terminal, cleaved; copies: + +
T1 sequence (looked up) 1: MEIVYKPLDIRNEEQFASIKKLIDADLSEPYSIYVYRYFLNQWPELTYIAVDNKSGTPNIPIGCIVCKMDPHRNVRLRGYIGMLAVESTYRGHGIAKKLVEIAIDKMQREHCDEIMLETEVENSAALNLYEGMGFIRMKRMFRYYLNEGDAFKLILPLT
T1 sequence (looked up) 2: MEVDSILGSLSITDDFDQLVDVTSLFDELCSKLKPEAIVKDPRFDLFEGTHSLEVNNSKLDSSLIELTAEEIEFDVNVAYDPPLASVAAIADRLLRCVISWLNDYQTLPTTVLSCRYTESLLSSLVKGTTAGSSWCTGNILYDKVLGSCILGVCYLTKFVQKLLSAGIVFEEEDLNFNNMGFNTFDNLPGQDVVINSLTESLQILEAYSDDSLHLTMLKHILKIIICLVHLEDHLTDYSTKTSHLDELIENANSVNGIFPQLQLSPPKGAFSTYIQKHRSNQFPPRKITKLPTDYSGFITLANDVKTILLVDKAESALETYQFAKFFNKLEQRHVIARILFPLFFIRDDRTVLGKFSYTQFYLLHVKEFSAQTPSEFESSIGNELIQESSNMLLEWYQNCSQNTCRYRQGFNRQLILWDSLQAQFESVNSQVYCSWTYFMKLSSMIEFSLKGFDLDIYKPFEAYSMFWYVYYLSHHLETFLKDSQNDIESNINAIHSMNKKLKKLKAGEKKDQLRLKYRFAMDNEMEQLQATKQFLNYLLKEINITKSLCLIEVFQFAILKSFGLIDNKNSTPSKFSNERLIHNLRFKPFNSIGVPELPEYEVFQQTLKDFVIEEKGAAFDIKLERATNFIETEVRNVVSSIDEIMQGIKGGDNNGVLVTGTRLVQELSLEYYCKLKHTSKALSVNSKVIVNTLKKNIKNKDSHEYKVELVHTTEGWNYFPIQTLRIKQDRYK
T1 sequence (looked up) 3: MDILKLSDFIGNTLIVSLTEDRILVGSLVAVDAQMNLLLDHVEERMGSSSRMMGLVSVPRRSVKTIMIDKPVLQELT
In words: crystal structure; purified NatC with CoA (1:3) and substrate peptide … (1:5) or … (1:3) added to the crystallization setup; 14.5–16.5% PEG 4000, 150 mM ammonium iodide, 100 mM sodium citrate pH 6.1–6.3. The settings on record: both partners purified.

Substrate in series [2]: CC(=O)SCCNC(=O)CCNC(=O)[C@H](O)C(C)(C)COP(=O)(O)OP(=O)(O)OC[C@H]1O[C@@H](n2cnc3c(N)ncnc32)[C@H](O)[C@@H]1OP(=O)(O)O
As to the kind of experiment: Ellman (DTNB) colorimetric acetyltransferase assay, Michaelis-Menten fit. Format: biochemical, Saccharomyces cerevisiae. The settings on record: fixed yArl3 peptide … 1340 µM, 30–500 µM acetyl-CoA, pH 7.5, 25 °C. The source says:
Ellman (DTNB) colorimetric acetyltransferase assay, Michaelis-Menten fit on NatC WT (Naa30ΔC17, full-length Naa35, Naa38ΔC11)

B1: Gag peptide (MLRFVGSRRR) (peptide)
peptide: MLRFVGSRRR
notes: the N-terminal five residues of the major capsid protein (Gag) of the S. cerevisiae virus L-A; GS linker and a triple arginine to facilitate peptide solubility; Only the first six residues were modelled in the crystal; source: synthetic peptide (ProteoGenix)
For the molecule B1, the binding result in series [1] is “binds”.

B2: NatC WT (Naa30ΔC17, full-length Naa35, Naa38ΔC11) (Saccharomyces cerevisiae S288C) (protein)
chain: MEIVYKPLDIRNEEQFASIKKLIDADLSEPYSIYVYRYFLNQWPELTYIAVDNKSGTPNIPIGCIVCKMDPHRNVRLRGYIGMLAVESTYRGHGIAKKLVEIAIDKMQREHCDEIMLETEVENSAALNLYEGMGFIRMKRMFRYYLNEGDAFKLILPLT
notes: heterotrimer co-expressed in E. coli BL21(DE3) from pRSFDuet-1; Naa30 lacks 17 and Naa38 lacks 11 C-terminal residues; His6-tag on Naa35 cut by HRV 3C; with N-alpha-acetyltransferase 35, NatC auxiliary subunit; N-alpha-acetyltransferase 38, NatC auxiliary subunit
As for B2, the Km in series [2] is 30 ± 6 µM.
